The values below come from paper PMC6368398.

The target of series [1] is scRad52 (Saccharomyces cerevisiae, UniProt P06778 1-471). Briefly: FRET.
Series [2] deals with RPA-wt (RPA70-RPA32-RPA14 heterotrimer) (Saccharomyces cerevisiae, UniProt P22336;P26754;P26755 1-621;1-273;1-122). Briefly: FRET.
RPA-wt (RPA70-RPA32-RPA14 heterotrimer), sequence (P22336 whole entry, chain 1 of 3): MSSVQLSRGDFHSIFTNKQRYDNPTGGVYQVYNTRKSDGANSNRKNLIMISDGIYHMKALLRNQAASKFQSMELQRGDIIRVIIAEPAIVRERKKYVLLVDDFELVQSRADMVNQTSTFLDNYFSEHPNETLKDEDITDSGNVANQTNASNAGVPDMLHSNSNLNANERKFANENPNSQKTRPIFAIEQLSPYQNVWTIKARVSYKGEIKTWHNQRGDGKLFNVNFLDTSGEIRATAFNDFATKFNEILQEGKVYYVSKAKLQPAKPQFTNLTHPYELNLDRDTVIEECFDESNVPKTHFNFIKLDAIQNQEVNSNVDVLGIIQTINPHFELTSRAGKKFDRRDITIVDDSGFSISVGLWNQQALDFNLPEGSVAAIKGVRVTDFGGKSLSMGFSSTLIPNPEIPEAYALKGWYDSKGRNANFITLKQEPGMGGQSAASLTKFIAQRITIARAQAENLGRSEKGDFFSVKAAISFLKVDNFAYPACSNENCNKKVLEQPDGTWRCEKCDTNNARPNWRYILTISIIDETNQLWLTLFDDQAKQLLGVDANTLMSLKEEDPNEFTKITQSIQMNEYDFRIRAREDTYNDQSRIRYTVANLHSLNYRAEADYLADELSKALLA
RPA-wt (RPA70-RPA32-RPA14 heterotrimer), sequence (P26754 whole entry, chain 2 of 3): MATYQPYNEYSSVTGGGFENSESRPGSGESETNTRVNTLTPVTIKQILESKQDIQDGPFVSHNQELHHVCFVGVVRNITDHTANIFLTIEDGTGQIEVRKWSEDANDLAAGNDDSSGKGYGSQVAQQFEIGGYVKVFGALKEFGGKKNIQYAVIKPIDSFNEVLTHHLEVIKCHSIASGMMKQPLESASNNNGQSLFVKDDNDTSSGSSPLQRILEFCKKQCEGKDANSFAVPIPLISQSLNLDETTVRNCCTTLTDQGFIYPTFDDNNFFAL
RPA-wt (RPA70-RPA32-RPA14 heterotrimer), sequence (P26755 whole entry, chain 3 of 3): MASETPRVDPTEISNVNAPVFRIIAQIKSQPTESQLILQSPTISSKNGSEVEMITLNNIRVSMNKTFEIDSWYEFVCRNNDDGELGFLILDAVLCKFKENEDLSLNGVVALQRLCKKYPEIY

scRad52, sequence (P06778 whole entry): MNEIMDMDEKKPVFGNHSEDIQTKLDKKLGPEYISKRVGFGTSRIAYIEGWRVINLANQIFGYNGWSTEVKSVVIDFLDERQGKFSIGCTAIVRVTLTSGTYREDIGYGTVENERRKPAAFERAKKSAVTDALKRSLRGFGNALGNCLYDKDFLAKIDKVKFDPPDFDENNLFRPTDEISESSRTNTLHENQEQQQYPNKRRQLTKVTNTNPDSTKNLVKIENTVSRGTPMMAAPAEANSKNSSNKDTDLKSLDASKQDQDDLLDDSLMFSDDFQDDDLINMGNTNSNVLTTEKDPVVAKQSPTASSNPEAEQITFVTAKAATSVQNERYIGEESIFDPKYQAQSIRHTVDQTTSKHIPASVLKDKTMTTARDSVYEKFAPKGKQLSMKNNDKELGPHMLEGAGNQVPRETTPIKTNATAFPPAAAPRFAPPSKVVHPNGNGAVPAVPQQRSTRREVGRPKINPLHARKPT

Consider TTTTTTTTTTTTTTTTTTTTTTTTTTTTTT (ssDNA) [Cy3-dT30-Cy5], for which the binding result in series [1] and in series [2] was “binds” each time.
